Measured values as given in a protein production outcome set (Wang et al. 2014).

Experiment: label from the status in PepcDB records
In the case of “MAWNQPGNNGQDRDPWGSSKPGGNSEGNGNKGGRDQGPPDLDDIFRKLSKKLGGLGGGKGTGSGGGSSSQGPRPQLGGRVVTIAAAAIVIIWAASGFYTIKEAERGVVTRFGKFSHLVEPGLNWKPTFIDEVKPVNVEAVRELAASGVMLTSDENVVRVEMNVQYRVTNPEKYLYSVTSPDDSLRQATDSALRGVIGKYTMDRILTEGRTVIRSDTQRELEETIRPYDMGITLLDVNFQAARPPEEVKAAFDDAIAARENEQQYIREAEAYTNEVQPRANGQAQRILEEARAYKAQTILEAQGEVARFAKLLPEYKAAPEITRERLYIETMEKVLGNTRKVLVNDKGGNLMVLPLDQMLKGGNAPAAKSDNGASNLLRLPPASSSTTSGASNTSSTSQGDIMDQRRANAQRNDYQRQGE”, the protein production is reported as “failed”. For “MAYDSRLPEQRDPATDPSANYDYQGDSVNRPDLVSALEQRVDGDVRFDTYTRELFATDASAYEQLPIGVVSPVSTEDVVAVMEYCAAEDIPVLPRGGGTSLAGQAVNEAVVLDFKRYMDE”, the protein production was “not failed”. In the case of “MAYITYQQYLDLYGTCPISEEEFPVYAGLASDMIDSITRYRIVEGGGISALPSILQTLVQKAAAAQVLYFTQIGLETVLTGQAGQSFTVGKVSVSGGALSSTTTKPGALMVSPFALSLLEQTPLMERGVHVCSDRFLNPFWGILEHHHHHH”, the protein production is reported as “failed”. For “MAYNPKILQKPKEGEEITIKDNKLHVPNHPIIPFIEGDGIGSDITPAMIKVVDSAVQKAYKGEKKIAWYEVFVGEKCYQKFKDYKELSPEEQWLLPDTIEAINHYKVSIKGPLTTPIGEGFRSLNVALRQKMDLYVCLRPVRWYGSPSPVKEPQKVDMVIFRENSEDIYAGIEWQEGSAEAKKLIHFLQNELKVKKIRFPESSGIGVKPISKEGTERLVRKAIEYAIDNDKPSVTFVHKGNIMKYTEGAFMKWGYALAQKEFNAQVIDKGPWCSLKNPKNGKEIIIKDMIADAFLQQILLRPSEYSVIATMNLNGDYISDALAAMVGGIGIAPGANLNDTVGMFEATHGTAPKYAGLDKVNPGSIILSAEMMLRHMGWVEAADLIVSAMEKAIKSKKVTYDFARLMDGAKEVKCSEFASVMIENM”, the protein production was “failed”. With “MAYSACFLHQSALASSAARSSSSSSSQRHVSLSKPVQIICKAQQSHEDDNSAVSRRLALTLLVGAAAVGSKVSPADAAYGEAANVFGKPKTNTDFLPYNGDGFKVQVPAKWNPSKEIEYPGQVLRFEDNFDATSNLNVMVTPTDKKSITDYGSPEEFLSQVNYLLGKQAYFGETASEGGFDNNAVATANILESSSQEVGGKPYYYLSVLTRTADGDEGGKHQLITATVNGGKLYICKAQAGDKRWFKGARKFVESAATSFSVA” the protein production was “failed”. In the case of “MAYTDPAQRNQVTVLQVGYSRQEEGDESAMRANCTCTLVRCRDGTNIIVDTLTAWDGDHLRSLLGQQGLGVDDIHVVVCSHGHSDHIGCNYLFQKARMHLVGACASHHDLYMDHLGSGNPDEQLALDSNAEVVVRRSPGHTLSCVSVLVENSQLGGRVGITGDLFERREDIDDENIWMDAGSENEKVQREERSKMAQLCEFIIPGHGPMFSVTQSMRCKLKEDATSNT”, the protein production is reported as “failed”. In the case of “MAYVLTETSAGYALLKASDKKIYKSSSLIQDLDSSDKVLKEFKIAAFSKFNSAANALEEANSIIEGKVSSQLEKLLEEIKKDKKSTLIVSETKLANAINKLGLNFNVVSDAVTLDIYRAIKEYLPELLPGMSDNDLSKMSLGLAHSIGRHKLKFSADKVDVMIIQAIALLDDLDKELNTYAMRCKEWYGWHFPELAKIVTDSVAYARIILTMGIRSKASETDLSEILPEEIEERVKTAAEVSMGTEITQTDLDNINALAEQIVEFAAYREQLSNYLSARMKAIAPNLTQLVGELVGARLIAHSGSLISLAKSPASTIQILGAEKALFRALKTKHDTPKYGLLYHASLVGQATGKNKGKIARVLAAKAAVSLRYDALAEDRDDSGDIGLESRAKVENRLSQLEGRDLRTTPKVVREAKKVEMTEARAYNADADTAKAASDSESDSDDEEEEKKEKKEKKRKRDDDEDSKDSKKAKKEKKDKKEKKEKKEKKEKKEKKEKKEKKSKKEKKEKK”, the protein production is reported as “failed”. For “MCAEFVERRLAAILAADVVGYSRLLEANEEETLNALRQHRRELFDPAVAIHGGHIIKVMGDGFLVEFGSVLSAARCAVEIQRGMLERNIGIPGDRHFAFRIGLNLGDIVFDEDDFHGDGINVAVRLQALAAPGGIACSAAVRHEVANKLDLGFADQGAMTVKNISRPVHVYFADWGNAPSSEEVPLTAGGHTRAPVNKPSVAVLPFANISNDPEQDFFSDGITEDLITDLSNVSGLFVLSRNTVFTWKGRSENLQRIAAELGVAYIVEGSVRKAGNQVRINAELIEAASDGHVWAARYDRDLTDIFEMQDEIVKAIVGQLKVKLLPEEKRAIEQAPTESVEAYTHFLRGREYYHIASRSNHLMARQSFARAIELDPGYARAYAGIAVCDARLRSQFGAEIPVEDILANTATALVIDPNLAEAYAAKGFALAVAGNRTEAVSAFAQALSLDANCHEANRYYAEFCVTEGQFELAATHFQRAMEIKPADYGAPIMLVNVLRSLGQIDKASSYARIALKRAEEELRLHPENANVACLGATALAFLGVRDTALEWLARSLATDPDDINIQYNAACTYALLGEIDRAIDLLEVWMPQVGIEMRLWFKNDSDLDPIRSHPRYLKLVSLSE”, the protein production was “failed”. For “MCDYDEPLYLISVVAKILGVHPQTLRQYEKEGLIEPSRTDGKMRLYSQRDMDKIKTILRLTRDMGVNLAGVDIILRLKEKLDELDNLNKELQDALHKHSKNTKTPTKNLNTPTNFYELILFKK”, the protein production was “failed”. For “MCHSGTFHLTAGESVEWVLTWAPSFEPHPPMPDYTRSLESTLSFWASWVEELPHQRLYDAEVRRSMLVLRALTDLQTGGIVAAPTTSLPEDFGGIRNWDYRYVWLRDSALTIEALVEYGFSQAALQWRTWLLRAIAGDPENLRIMYGLGGERHLPERELQHLRGYENSVPVRVGNGAAEQYQADVVGEVMVALETIRRAGCLEDEFSWGMQKAILDFQEANFDRKDQGIWEMRSEPQYFTHGRAMMWAGFDRGIKAIEEFNLDGPIERWRELRAKLREEIMTNGFNEEIQSFTQCYDNTQVDASLLQLAQIGFIGFDDPKMLSTVARIEQELLDAHGFLHRYHTDGSDGLAGDEYPFLICSFWLVEQYASSNRLDEAKEKMNRILAVQSPLGLLAEEYSTHHGRLAGNYPQAFSHIGLISAARAINFEEARNRLEHHHHHH”, the protein production was “failed”. In the case of “MCKPPMRLLTQTGLPRSSERQIRILEIVTGNRKGKHQPKPISKPQPNISMPKIIEAIYENGVFKPLQKVNFRPGSKVRIVIQEDKKEILRKYKGVFGKAEVEELREYEGEVMLLEHHHHHH”, the protein production is reported as “failed”. For “MCLGIPARVVEVLDGPLPMAVVDMAGEQRPCSVMYVPEVQVGQFVLLQNGYAMEVLDEKSAQESLATIAEFNLVQQVQLAPRE”, the protein production was “failed”. For “MCPYITRRNDVMNDTFDYIFGYALSTALARYWVNPDGSQGGIVSIDAKIDASVMIGKDAVVFPDANIAERACIAEKVCIGNAVRIGKHAMIDHGASIGDRSNIGERSRIYQDSFIGENAVIAARACIGEKVYIGNFVSLAKDSIIDDGVNIGERSSIGERTRIRQGSFIRKGCVIRQRSVIAKRAYIDEGVYIGNVVRIGEESMIHRRSRIGSGARIGGSVCIGVYCRIDGSVRIGQHADIGEWVNIDGHARIGNFARIGEWSRIGGRANIAAHVVLEKQSIIHSETCIQDASKTSVDMPKDAGI”, the protein production was “failed”. With “MCSYARATDANGESFIYCRTWQGQFFRFKLEDRVYDYVTTFAKSDACLATDPDDPTKIYCALNEYNKITCIDLTKNPEDSGFETDVCGIQGPGAYQDGHVSVARLNNPQQILSMHDPETGEKVIYICDANNNCVRMYNMETKLMSTVAGIGGKSGYAAGNPTVSRMNRPYGICITPENDIYVADAGNKVIMKLAFMLEHHHHHH” the protein production was “failed”. For “MCTPFIFVVYAKSKYLCVLISNEMGKNKLEKFADMASYPHVFEYPYSAVDNVPFDMKGKWHQEFFGNDHPIVLELGCGRGEYTVGLGRMFPDKNFIAVDIKGSRMWTGATESLQAGMKNVAFLRTNIEIIERFFAAGEVSEIWLTFSDPQMKKATKRLTSTYFMERYRKFLKPDGIIHLKTDSNFMFTYTKYMIEANQLPVEFITEDLYHSDLVDDILSIKTYYEQQWLDRGLNIKYIKFRLPLEHHHHHH”, the protein production was “failed”. In the case of “MCVHTRKPDGLHPKPVSHCPVIDTGQSEWRSFTFTTICMGFRPRQAYRQPSPIANETENTMSNSNIQQEAQDIHDQLPESVDASPEDIEERLTTLVDDYRVPLDEAQRSVVSTYLSDSDVDRDDVSSENENQQVDLEEITEAEQWVDITAKVADLWEPRSDSIAQVGLLGDETGTIKFTKWAKSDLEALTEGQVYRLGNVVTDEYQGQYSVKLNRTTTIEALDQDIEVGDDTTDAEGALVDIQSGSGLIKRCPEDDCTRVLQNGRCSEHGEGEGEFDLRIKGVIDNGDTVQEVIFDKEATEQVADITLAQAQEMAMDALDTSVVADEIREVTLGRYYRVQGPELGRYLLVNEFEQLAEMHDPEQLLITARSILEHHHHHH”, the protein production is reported as “not failed”. In the case of “MCVSSSIQTAILDWQCVDGIDIPVSRQFGDVYFSKDNGLLETRHVFLNGNNLTERLADLKPYQYFCVGETGFGTGLNILAVWQLWQQVRPDNHSHLHVISVEKFPLSKSDLERALRAWPELIILAEQLIEQYPFPIAGCHRLNFPDERFSLDLWLGDAHDVFPSIVKTHSVDAWFLDGFAPSCNPELWETQVLNQIVRLSDYGTTFASFSVAGILKRGLKAHGIHISRPRGFGHKREMLKAIWPFPDHESTTTVKGNQPSTQQHFAVIGAGIAGLHCAWSLAQRGHRVTLVDQSQPLSGASGNPLALLNPKLCPITQCHDHLMVLCWQYARRFYQNFEAFRLIQVNQLALKASDSLLNLAEQYPKDVLDAHSAQQSPLETQYDYLTLHYAGVISPQLFCNQVLQHPLIEFKQFKINQIIEIDGTVQLLSSEQAILESNAAIVCCARESGKLFEQYPTLKPIRGQVSWFEQHTFPFAPDQAFSYGGYCMQLHPQQLILGASFHPQRDDDEVLLEDHVHNFNLIHSVFPAYAQTLPPVEEWHGRASVRAQSPDYFPLVGQLQDHSKLFTLAGLGSKGYLFAPLNSEILVAHILGEACPVSANLLQKLNPQRFLKKVKIKKPYYSS”, the protein production is reported as “failed”. For “MDAARFPADARVRVLARRFPPYHRDSPCLAILDRFLHDPTLSAAAVVDDAMRPVGLIDRYSLVEQFLHPYSRDLYHKHSIAAFMDPEPVIVEADSSIDDLSRIIIDAGMRHMVSGFIVTEDGLYLGIGSGHDLFEEVANRKQNHLYHLAHYDPLTSLPNRLLLNDRLKRACLRGQRGGYRIALLFIDLDRFKLVNDTLGHAAGDQLLQGVAGRFAACVRKVDTVARLGGDEFTVLLEPVQGPDEALAVAAKLAQSLERPFLIQNHEITTSASIGVVLFPEHDATVEGLMRKADAAMYCAKREGRNRFALFTEEMNSTVVERVTLESYLNAALEKGEFCCHFQPQMATADDRIVGVEALLRWTNPVLGRVPPLKFIPVAEDTGLILPLGLWALETACAQQVRWLSQGLPPLRMAVNISPLQFRNREFCDQVRAIVQRTGIRAEHLELELTESAVMADAESSVGILRELRDSGIRLAIDDFGTGYSSLSYLRKFPLDRLKIDRSFVSGIDRIPANELIVKAIVALGGSLGLDVIAEGVETPEELECIERCGCSEYQGFRLSEPLTAEDFAHWFEDSGYVLEHHHHHH”, the protein production was “failed”. For “MDAEKKSAHFRQISSYKPQLLVLSSIQENPSSKISEKANIKADNDAEIGVFGAEKYFSMKLDHVDSTADITKQHEKENTHDHPNANPNPNPNPHPHPHPQLTKTTSSRSKTSRHGTPSVRSESSCNSQTFLMRINNHNENKQRKMNDTSISFGGFRCYGPCSGVKTVHTDPKNSCKSRNSDRDFVAYDARKHNDKPRLHFEAKKADFHAQEKISLPIQRSDIAMNLERKLSLLTWDAIPNQLSTKNNNHNNNGNNSSMSSNTQEEETASVASSDLFEIENITSSVYEPSEASIGWSVVTGSMADQSVISDFDMMKRVTRNGPVVKTKPVIGEKVRSAGFLSGCKSHKAVSVVDSSRKVKETAKVDHHEMSHQKKFKTEIRIQDLSFL”, the protein production was “failed”.
